From patent publication US20250346659A1 (ELASMOGEN, published 2025)

Experiments:
[1] = molecular target: T1, human Tumour Necrosis Factor alpha (human, UniProt P01375 77-233); assay: binding ELISA on 1 µg/ml hTNF-α, absorbance at 450 nm
T1 construct: Amine-coupled to the chip for BIAcore, biotinylated on streptavidin sensors for Octet, coated at 1 µg/ml for ELISA; also called hTNFα; rhTNFα

[2] = molecular target: T1, human Tumour Necrosis Factor alpha; assay: BLI, Octet RED96, biotinylated hTNF-α on streptavidin sensors, top concentration 1 µM
human ICOS ligand = molecular target: T2, human ICOS ligand (human, UniProt O75144 19-258, limits assumed); assay: hICOSL neutralisation assay (lower left panel): blocking of hICOSL binding to its CHO-expressed receptor, absorbance at 450 nm
T2 construct: also called hICOSL
T2 sequence (looked up): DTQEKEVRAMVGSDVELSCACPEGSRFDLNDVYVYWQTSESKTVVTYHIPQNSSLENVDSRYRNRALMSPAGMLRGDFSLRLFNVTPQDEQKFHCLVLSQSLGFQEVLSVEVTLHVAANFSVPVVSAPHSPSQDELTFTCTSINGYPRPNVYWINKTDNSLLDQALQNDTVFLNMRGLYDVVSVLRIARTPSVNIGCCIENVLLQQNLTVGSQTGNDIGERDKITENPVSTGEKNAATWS

human serum albumin = molecular target: T3, human serum albumin (human, UniProt P02768 25-609); assay: binding ELISA on human serum albumin (HSA), OD 450
T3 construct: also called HSA

[3] = molecular target: T1, human Tumour Necrosis Factor alpha; assay: binding ELISA on human TNF-alpha, OD 450
[4] = molecular target: T1, human Tumour Necrosis Factor alpha; assay: binding ELISA on TNFα (Anti-TNF NAR Dimers Binding ELISA, post dialysis), absorbance at 450 nm
[5] = molecular target: T1, human Tumour Necrosis Factor alpha; assay: kinetics on hTNFα; instrument (BIAcore T200 or Octet) not stated for this column
mouse ICOS ligand = molecular target: T4, mouse ICOS ligand (mouse, UniProt Q9JHJ8 47-279, limits assumed); assay: mICOSL neutralisation assay (lower right panel): blocking of mICOSL binding to its CHO-expressed receptor, absorbance at 450 nm
T4 construct: it may be the same Fc chimera as m48; also called mICOSL
T4 sequence (looked up): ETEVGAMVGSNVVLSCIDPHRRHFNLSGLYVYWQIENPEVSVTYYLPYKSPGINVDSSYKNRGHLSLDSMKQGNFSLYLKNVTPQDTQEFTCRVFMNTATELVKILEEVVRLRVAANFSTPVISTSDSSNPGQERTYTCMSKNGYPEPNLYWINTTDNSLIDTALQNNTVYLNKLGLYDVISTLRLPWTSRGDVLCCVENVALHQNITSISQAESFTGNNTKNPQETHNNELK

Mouse TNF-alpha = molecular target: T5, Mouse TNF-alpha (mouse, UniProt P06804 80-235); assay: cross-reactivity binding, B of B/N; - denotes no binding/neutralisation activity observed
T5 construct: also called mouse TNFα
T5 sequence (looked up): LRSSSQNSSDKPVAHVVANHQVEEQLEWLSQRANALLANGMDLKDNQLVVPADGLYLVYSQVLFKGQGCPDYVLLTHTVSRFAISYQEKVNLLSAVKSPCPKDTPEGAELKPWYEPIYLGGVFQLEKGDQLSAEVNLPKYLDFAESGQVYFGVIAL

Rat TNFα = molecular target: T6, Rat TNFα (rat, UniProt P16599 80-235); assay: as above
T6 sequence (looked up): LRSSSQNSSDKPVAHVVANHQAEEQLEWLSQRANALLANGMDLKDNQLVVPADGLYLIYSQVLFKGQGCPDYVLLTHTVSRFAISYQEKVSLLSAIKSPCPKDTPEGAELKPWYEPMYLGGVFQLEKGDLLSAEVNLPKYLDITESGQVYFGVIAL

Rabbit TNFα = molecular target: T7, Rabbit TNFα (rabbit, UniProt P04924 80-235, limits assumed); assay: as above
T7 sequence (looked up): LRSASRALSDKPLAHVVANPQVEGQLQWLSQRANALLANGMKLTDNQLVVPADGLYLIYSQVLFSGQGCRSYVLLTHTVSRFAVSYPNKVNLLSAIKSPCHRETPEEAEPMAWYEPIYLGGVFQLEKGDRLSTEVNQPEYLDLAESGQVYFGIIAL

Human TNF-β = molecular target: T8, Human TNF-β (human, UniProt P01374 35-205); assay: as above
T8 construct: also called human TNFB
T8 sequence (looked up): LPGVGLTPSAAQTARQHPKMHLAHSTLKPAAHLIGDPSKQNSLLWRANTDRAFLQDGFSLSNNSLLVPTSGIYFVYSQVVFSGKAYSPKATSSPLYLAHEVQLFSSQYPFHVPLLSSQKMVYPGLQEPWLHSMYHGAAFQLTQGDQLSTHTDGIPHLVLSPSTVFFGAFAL

Pig TNFα = Pig TNFα (pig, UniProt P23563 77-232); assay: as above
Sequence of Pig TNFα (P23563 77-232 limits assumed): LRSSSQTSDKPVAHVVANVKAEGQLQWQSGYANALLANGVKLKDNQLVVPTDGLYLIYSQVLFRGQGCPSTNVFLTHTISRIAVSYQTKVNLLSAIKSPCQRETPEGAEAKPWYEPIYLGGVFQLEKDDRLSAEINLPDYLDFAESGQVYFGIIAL

T1 sequence (P01375 77-233 limits assumed): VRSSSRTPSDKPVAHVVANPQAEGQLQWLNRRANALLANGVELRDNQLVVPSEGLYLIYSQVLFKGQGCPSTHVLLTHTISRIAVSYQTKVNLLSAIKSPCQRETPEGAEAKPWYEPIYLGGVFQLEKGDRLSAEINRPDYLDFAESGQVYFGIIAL

B1: SoloMER™ VNAR D1-v4 (VNAR)
VNAR: ARVDQSPSSLSASVGDRVTITCVLRDSHCATSSTYWYRKKPGSTNEESISKGGRFSGSGSSGSKSFTLTISSLQPEDFATYYCASECQYGLAEYDVFGQGTKVEIKH
notes: Humanised D1 with His tag
EC50 (read off the curve) [1]: ~0.1 µg/mL

B2: BB10 (VNAR)
VNAR: TRVDQSPSSLSASVGDRVTITCVLTDTSYPLYSTYWYRKNPGSSNKEQISISGRYSESVNKGTKSFTLTISSLQPEDFATYYCRAMGTNFWTGDGAGTKVEIK
Kd [2]: > 1000 nM

B3: VNAR-TNFR1 Fc bi-functional construct, Format 4: anti-hICOSL VNAR (2D4) (Fc fusion)
chain: TRVDQTPRTATKETGESLTINCVLTDTDYGLFSTSWFRKNPGTTDWERMSIGGRYVESVNKGAKSFSLRIKDLTVADSATYYCKAFTWPWEWPDRWFRPWYDGAGTVLTVN
IC50 (read off the curve) (human ICOS ligand): ~0.4 µg/mL

B4: TNF S17-Quad-X™ (Fc fusion)
chain: ASVNQTPRTATKETGESLTINCVLTDTHAKVFTTSWFRKNPGTTDWERMSIGGRYVESVNKGAKSFSLRIKDLTVADSATYICRAGGYLSQPRVYWDVYGAGTVLTVNGGGGSGGGGRTEPRGPTIKPCPPCKCPAPNLLGGPSVFIFPPKIKDVLMISLSPIVTCVVVDVSEDDPDVQISWFVNNVEVHTAQTQTHREDYNSTLRVVSALPIQHQDWMSGKEFKCKVNNKDLPAPIERTISKPKGSVRAPQVYVLPPPEEEMTKKQVTLTCMVTDFMPEDIYVEWTNNGKTELNYKNTEPVLDSDGSYFMYSKLRVEKKNWVERNSYSCSVVHEGLHNHHTTKSFSRTPGKGGGGSGGGGSGGGGSGGGGSGAHSASVNQTPRTATKETGESLTINCVLTDTHAKVFTTSWFRKNPGTTDWERMSIGGRYVESVNKGAKSFSLRIKDLTVADSATYICRAGGYLSQPRVYWDVYGAGTVLTVN
notes: S17, mouse IgG2a Fc and S17 in one chain; also called S17-Fc-S17; S17-Fc-S17 (Quad-X™)
binding result (human serum albumin): no binding (tested: 5 µg/ml) | binding result [3]: no binding (tested: 5 µg/ml)

B5: TNF VNAR DIMER D1-D1 (VNAR)
chain: ARVDQTPQTITKETGESLTINCVLRDSHCATSSTYWYRKKSGSTNEESISKGGRYVETVNSGSKSFSLRINDLTVEDSGTYRCASECQYGLAEYDVYGGGTVVTVNGGGGSGGGGGSGAHSARVDQTPQTITKETGESLTINCVLRDSHCATSSTYWYRKKSGSTNEESISKGGRYVETVNSGSKSFSLRINDLTVEDSGTYRCASECQYGLAEYDVYGGGTVVTVNAAAHHHHHHGAAESKLISEEDL
EC50 (read off the curve) [4]: ~0.009 µg/mL

B6: TNF VNAR D1-BA11-B4 (VNAR)
chain: ARVDQTPQTITKETGESLTINCVLRDSHCATSSTYWYRKKSGSTNEESISKGGRYVETVNSGSKSFSLRINDLTVEDSGTYRCASECQYGLAEYDVYGGGTVVTVNGGGGSGGGGSGGGGSGGGGSGAHSTRVDQSPSSLSASVGDRVTITCVLTDTSYPLYSTYWYRKNPGSSNKEQISISGRYSESVNKGTKSFTLTISSLQPEDSATYYCRAMSTNIWTGDGAGTKVEIKGGGGSGGGGSGGGGSGGGGSGAHSARVDQTPQTITKETGESLTINCVLRDSNCALSSMYWYRKKSGSTNEESISKGGRYVETVNSGSKSFSLRINDLTVEDSGTYRCKVYIPCIDELVYMISGGTSGPIHDVYGGGTVVTVNHHHHHHHEQKLISEEDL
notes: Tandem VNAR trimer with anti-HSA BA11 in the middle, His and Myc tags
koff [5]: ~0.0006 s⁻¹

B7: VNAR-TNFR1 Fc bi-functional construct, Format 2: anti-mICOSL VNAR (CC3) (Fc fusion)
chain: TRVDQTPRTATKETGESLTINCVLTDTEYGLFSTSWFRKNPGTTDWERMSIGGRYVESVNKGAKSFSLRIKDLTVADSATYYCKALGWWPPAFPHWYDGAGTVLTVN
IC50 (read off the curve) (mouse ICOS ligand): ~0.2 µg/mL

B8: TNF VNAR D1 (VNAR)
VNAR: ARVDQTPQTITKETGESLTINCVLRDSHCATSSTYWYRKKSGSTNEESISKGGRYVETVNSGSKSFSLRINDLTVEDSGTYRCASECQYGLAEYDVYGGGTVVTVNA
notes: Nurse shark VNAR single domain; also called VNAR D1 (wt); VNAR anti-hTNFa-D1
binding result (Mouse TNF-alpha): no binding | binding result (Rat TNFα): no binding | binding result (Rabbit TNFα): no binding | binding result (Human TNF-β): no binding | binding result (Pig TNFα): no binding
